Measured values reported in article PMC10938568 (Science Advances, 2021).
Read-outs that look alike come from different tables or passages of the source.

B1: GST-PreScission-p62 FIR 4P (domain or fragment)
chain: MESDNCSGGDDDWTHLSSKEVDPETGELQSLQMPESEGPEELDPEQEGPTGLKEA
B2: His8-TEV-GABARAP (1 to 117) (natural protein)
chain: MKFVYKEEHPFEKRRSEGEKIRKKYPDRVPVIVEKAPKARIGDLDKKKYLVPSDLTVGQFYFLIRKRIHLRAEDALFFFVNNVIPPTSATMGQLYQEHHEEDFFLYIAYSDESVYGL

What was measured:
Test in all cases: SPR
[1] = biological target: B2
[2] = biological target: His8-TEV-LC3B (1 to 125) (human, UniProt Q9GZQ8 1-120)
[3] = biological target: T1, Biotinylated FLCN-8xGlycine-AviTag/FNIP2 (human, UniProt Q8NFG4;Q9P278, biotin on the AviTag)
[4] = biological target: T1, Biotinylated FLCN-8xGlycine-AviTag/FNIP2; remark: listed apart in the source

Binder | Kd [1] [nM] | Kd [2] [nM] | Kd [3] [nM] | Kd [4] [nM]
B1 | 670 ± 80 | 820 ± 40 | – | –
B2 | – | – | 0.071 ± 0.01 | 0.3 ± 0.018
